Measurements reported in PMC8540780, “Biochemical and Molecular Characterization of the Rice Chalcone Isomerase Family” (Plants, 2021).

Key:
purified protein [1] = substrate: O=C(/C=C/c1ccc(O)cc1)c1ccc(O)cc1O; test: purified protein; conditions: 50 mM Tris pH 7.5, 500 µg enzyme (b24 prints 440 µg/mL for the activity test), substrate 1–50 µM
purified protein [2] = substrate: O=C(/C=C/c1ccc(O)cc1)c1c(O)cc(O)cc1O; test: purified protein; assay type: biochemical, Oryza sativa; conditions: 50 mM Tris pH 7.5, 0.1 µg enzyme per mL, substrate 1–50 µM

B1: OsCHI3 (Oryza sativa Japonica Group) (protein)
chain: MAAVSEVEVDGVVFPPVARPPGSGHAHFLAGAGVRGVEIAGNFIKFTAIGVYLEEGAAVPALAKKWAGKSADELAADAAFFRDVVTGDFEKFTRVTMILPLTGEQYSDKVTENCVAAWKAAGVYTDAEGAAADKFKEAFKPHSFPPGASILFTHSPPGVLTVAFSKDSSVPEGAVAAAAIENRALCEAVLDSIIGEHGVSPAAKRSIAARVSQLLKAESTGDVAAAEPAPVSA
notes: 233 aa; 28 kDa on SDS-PAGE
Purified protein [1]
  Km: 50.95 ± 4.83 µM
  Vmax: 0.000212 µmol/min/mg
  kcat: 9.21e-05 s⁻¹
  kcat/Km: 1.81 M⁻¹ s⁻¹
Purified protein [2]
  Km: 11.60 ± 0.78 µM
  Vmax: 160 µmol/min/mg
  kcat: 69.3 s⁻¹
  kcat/Km: 5.98e+06 M⁻¹ s⁻¹
